Measurements from patent US20210115113A1 (CITY OF HOPE, published 2021).

T1: EBV gp350 expressed on the surface of stably transfected CHO cells (Epstein-Barr virus, UniProt P03200 1-907)
T1 construct: also called native gp350; gp350 expressing CHO cells
T1 sequence: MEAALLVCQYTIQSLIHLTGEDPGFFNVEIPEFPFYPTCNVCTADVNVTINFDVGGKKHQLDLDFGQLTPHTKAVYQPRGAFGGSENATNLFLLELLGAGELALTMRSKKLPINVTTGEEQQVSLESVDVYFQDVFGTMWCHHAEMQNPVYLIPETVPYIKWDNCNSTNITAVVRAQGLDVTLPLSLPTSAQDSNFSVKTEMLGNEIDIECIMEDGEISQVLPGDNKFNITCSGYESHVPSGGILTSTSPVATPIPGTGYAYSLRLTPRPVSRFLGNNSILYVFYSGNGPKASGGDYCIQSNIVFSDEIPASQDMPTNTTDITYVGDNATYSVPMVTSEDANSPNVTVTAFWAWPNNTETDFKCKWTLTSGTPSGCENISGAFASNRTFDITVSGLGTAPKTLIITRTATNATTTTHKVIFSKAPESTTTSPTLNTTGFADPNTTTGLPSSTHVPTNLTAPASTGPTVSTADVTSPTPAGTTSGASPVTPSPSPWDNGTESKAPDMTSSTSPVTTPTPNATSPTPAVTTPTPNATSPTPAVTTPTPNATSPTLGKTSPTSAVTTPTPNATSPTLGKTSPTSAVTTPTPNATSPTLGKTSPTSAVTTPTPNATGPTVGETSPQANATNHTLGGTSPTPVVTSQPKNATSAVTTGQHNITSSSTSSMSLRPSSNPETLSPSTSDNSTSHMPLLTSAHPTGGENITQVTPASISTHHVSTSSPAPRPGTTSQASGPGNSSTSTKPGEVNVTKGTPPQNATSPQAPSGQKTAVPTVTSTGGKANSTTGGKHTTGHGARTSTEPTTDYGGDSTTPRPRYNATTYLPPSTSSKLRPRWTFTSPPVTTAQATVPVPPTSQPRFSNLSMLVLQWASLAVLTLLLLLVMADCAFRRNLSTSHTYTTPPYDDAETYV

T2: EBV gp350 on EBV-eGFP virions (Epstein-Barr virus, UniProt P03200 1-907)
T2 sequence: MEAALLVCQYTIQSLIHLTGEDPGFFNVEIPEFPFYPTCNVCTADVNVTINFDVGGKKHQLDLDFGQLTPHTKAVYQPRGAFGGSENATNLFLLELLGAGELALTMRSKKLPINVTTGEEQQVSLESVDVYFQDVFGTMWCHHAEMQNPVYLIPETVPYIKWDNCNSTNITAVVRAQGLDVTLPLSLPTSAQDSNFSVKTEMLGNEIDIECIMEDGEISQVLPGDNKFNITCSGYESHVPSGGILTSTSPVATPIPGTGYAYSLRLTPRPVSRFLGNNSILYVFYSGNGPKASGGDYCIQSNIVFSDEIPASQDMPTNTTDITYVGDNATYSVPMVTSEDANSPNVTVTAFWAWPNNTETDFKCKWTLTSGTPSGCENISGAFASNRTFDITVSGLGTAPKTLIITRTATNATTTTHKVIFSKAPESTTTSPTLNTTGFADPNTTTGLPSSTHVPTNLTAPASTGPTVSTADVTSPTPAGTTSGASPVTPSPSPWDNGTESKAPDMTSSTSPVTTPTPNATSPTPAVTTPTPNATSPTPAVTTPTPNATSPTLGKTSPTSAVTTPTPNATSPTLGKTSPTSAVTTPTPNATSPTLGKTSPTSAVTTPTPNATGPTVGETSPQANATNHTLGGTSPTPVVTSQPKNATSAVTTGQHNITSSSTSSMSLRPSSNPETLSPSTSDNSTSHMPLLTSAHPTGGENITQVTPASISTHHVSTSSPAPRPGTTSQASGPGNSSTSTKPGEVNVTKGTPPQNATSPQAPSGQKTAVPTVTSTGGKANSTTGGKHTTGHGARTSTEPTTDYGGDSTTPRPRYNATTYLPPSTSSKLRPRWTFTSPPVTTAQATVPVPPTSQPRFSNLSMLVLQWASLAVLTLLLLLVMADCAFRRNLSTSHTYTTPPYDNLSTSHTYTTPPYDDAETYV

B1: murine 72A1 (m72A1), anti-EBV gp350 neutralizing antibody from hybridoma HB168 (antibody, V domains shown)
VH: EVQLQQSGPELVKPGTSMKISCKASGSSFTDYTMNWMKQSHGKNLEWIGLINPYNGGTRYNQKFKGKATLTLDKSSSTAYMEVLSLTSEDSAVYYCAGGLRRVNWFAYWGQGTLVSVSA
VL: QAVLTQESALTTSPGETVTLTCRSSTGAVTTSNYANWVQEKPDHLFTGLIGGTNNRVPGVPARFSGSLIGDKAALTITGAQTEDEAIYFCVLWHSNHWVFGGGTKLTVL
notes: also called nAb-72A1; mouse 72A1
B2: HB11 (antibody, V domains shown)
VH: PSLVKPSQTLSLTCSVTGDSITSGFWNWIRKFPGNKLEYMGYISYSGSTYYNPSLKSRISITRDTSKNQYYLQLNSVTTEDTATYYCARGNGGNYDWYFDVWGAGTTVTVSS
VL: AIMSASLGEKVTMSCRASSSVNFMNWYQQKSDDSPKLLIYYISNLAPGVPARFSGSGSGNSYSLTISGMEGEDAATYYCQQFTSSPSWTFGGGTKLEIKR
B3: HB17 (antibody, V domains shown)
VH: AELVIPGASVKVSCKASGYTFTSYWIHWVKQWPGQGLEWIGEINPNNGHTNYNEKFKSKATLTVDKSSSTAYMQLSSLTSEDSAVYYCARNLFYYSRPDYWGQGTSVTVSS
VL: SSLSASLGDRVTISCRASQDIGNYLNWYQQKPDGTIKLLIYYTSRLHSGVPSRFSGSGSGTDYSLTISNLEEEDIATYFCQQGNTLPPTFGGGTKLEIKR
B4: HB1 (antibody, V domains shown)
VH: PGLVAPSQSLSITCTVSGFLLTTYGVHWVRQPPGKGLEWLGVIWAGGSTNYNSALMSRLSINKDISKSQVFLKMNSLQTDDTAMYYCTRDRGYGYLYAMDYWGQGTSVTVSS
VL: KFMSTSVGDRVSVTCKASQNVGTNVAWYQQKPGQSPKALIYSTSSRYTGVPDRFAGSGSGTDYTLTISNVQSEDLAEYFCQQYNTYPYTFGGGTRLDIKR
B5: HB5 (antibody, V domains shown)
VH: AELVRPGASVKISCKAFGYTFTNHNINWVKQRPGQGLDWIGYINPYNDYTSYNQKFKGKATLTVDKSSNTAYMELSSLTSEDSAVYYCARSEGWLRRGAWFAYWGQGTLVTVSA
VL: AILSVSPGERVSFSCRASQSIGTSIHWYQQRTNDSPRLLIKYASESISGIPPRFSGSGSGTDFTLSINSVESEDIADYHCQQSNSWPMLTFGAGTKLELKR
notes: also called mHB5

Experiments:
[1] = biological target: T1, EBV gp350 expressed on the surface of …; assay: cell competition (flow), unlabeled 500 µg/ml; competitor: biotinylated m72A1 1 µg/ml
[2] = biological target: T1, EBV gp350 expressed on the surface of …; assay: cell competition (flow), unlabeled 125 µg/ml; competitor: biotinylated m72A1 1 µg/ml
[3] = biological target: T1, EBV gp350 expressed on the surface of …; assay: cross-competition on gp350-CHO cells (flow), unlabeled 500 µg/ml; competitor: biotinylated HB20
[4] = biological target: T1, EBV gp350 expressed on the surface of …; assay: cross-competition on gp350-CHO cells (flow), unlabeled 500 µg/ml; competitor: biotinylated h72A1
[5] = biological target: T1, EBV gp350 expressed on the surface of …; assay: cell competition (flow), unlabeled 250 µg/ml; competitor: biotinylated m72A1 1 µg/ml
[6] = biological target: T1, EBV gp350 expressed on the surface of …; assay: cross-competition on gp350-CHO cells (flow), unlabeled 500 µg/ml; competitor: biotinylated HB5
[7] = biological target: T1, EBV gp350 expressed on the surface of …; assay: cross-competition on gp350-CHO cells (flow), unlabeled 500 µg/ml; competitor: biotinylated HB11
[8] = biological target: T1, EBV gp350 expressed on the surface of …; assay: cross-competition on gp350-CHO cells (flow), unlabeled 500 µg/ml; competitor: biotinylated m72A1
[9] = biological target: T1, EBV gp350 expressed on the surface of …; assay: cell competition (flow), unlabeled 67.5 µg/ml; competitor: biotinylated m72A1 1 µg/ml
[10] = biological target: T1, EBV gp350 expressed on the surface of …; assay: cross-competition on gp350-CHO cells (flow), unlabeled 500 µg/ml; competitor: biotinylated HB17
[11] = biological target: T1, EBV gp350 expressed on the surface of …; assay: cross-competition on gp350-CHO cells (flow), unlabeled 500 µg/ml; competitor: biotinylated HB1
[12] = biological target: T1, EBV gp350 expressed on the surface of …; assay: cross-competition on gp350-CHO cells (flow), unlabeled 500 µg/ml; competitor: biotinylated 54A1
[13] = biological target: T2, EBV gp350 on EBV-eGFP virions; assay: cell-based or functional assay

Binder | % inhibition of biotinylated nAbs [1] [%] | % inhibition of biotinylated nAbs [2] [%] | % inhibition of biotinylated nAbs [3] [%] | % inhibition of biotinylated nAbs [4] [%] | % inhibition of biotinylated nAbs [5] [%] | % inhibition of biotinylated nAbs [6] [%] | % inhibition of biotinylated nAbs [7] [%] | % inhibition of biotinylated nAbs [8] [%] | % inhibition of biotinylated nAbs [9] [%] | % inhibition of biotinylated nAbs [10] [%] | % inhibition of biotinylated nAbs [11] [%] | % inhibition of biotinylated nAbs [12] [%] | % neutralization of EBV-eGFP infection of Raji cells at 100 µg/ml [13] [%]
B1 | 91 | 94 | 31 | 98 | 93 | 97 | 90 | 98 | 97 | 37 | 82 | 1 | –
B2 | 95 | 89 | 3 | 97 | 95 | 96 | 96 | 97 | 87 | 17 | 93 | 9 | 90
B3 | 32 | 6 | 17 | 16 | 32 | 32 | 11 | 24 | 0 | 86 | 23 | 0 | –
B4 | 91 | 81 | 61 | 95 | 89 | 97 | 96 | 98 | 81 | 16 | 92 | 4 | 90
B5 | 95 | 92 | 73 | 97 | 93 | 98 | 93 | 97 | 94 | 9 | 92 | 13 | –
